The source of these data is patent US7094597.

The target in the test is purified HLA MHC Class II molecules (human). Description: ELISA, biotinylated peptides on immobilized purified HLA class II molecules (FIG. 5). Background: ELISA stands for enzyme-linked immunosorbent assay.

dnaJp1 peptide (…) displayed a fold stronger binding than S1 and S6 peptides above 100 fold.
